Literature values, collected in article PMC5828189.

Molecular target: C1q globular head (gC1q) (Homo sapiens) (UniProt P02745)
UniProt P02745, sequence (P02745 23-245, chain 1 of 3): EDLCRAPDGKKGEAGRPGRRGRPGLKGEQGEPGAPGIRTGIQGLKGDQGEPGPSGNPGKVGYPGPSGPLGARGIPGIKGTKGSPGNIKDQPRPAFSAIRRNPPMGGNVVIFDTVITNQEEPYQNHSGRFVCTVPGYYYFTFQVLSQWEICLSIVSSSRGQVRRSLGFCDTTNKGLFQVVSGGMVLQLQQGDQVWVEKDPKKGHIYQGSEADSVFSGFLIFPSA
UniProt P02745, sequence (P02746 28-253, chain 2 of 3, further chain): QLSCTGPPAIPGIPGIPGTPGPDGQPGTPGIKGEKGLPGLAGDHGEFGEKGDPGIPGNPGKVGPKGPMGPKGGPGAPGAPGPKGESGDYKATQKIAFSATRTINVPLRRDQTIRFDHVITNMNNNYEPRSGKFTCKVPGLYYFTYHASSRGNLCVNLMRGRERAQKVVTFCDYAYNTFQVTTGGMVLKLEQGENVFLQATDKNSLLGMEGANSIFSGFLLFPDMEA
UniProt P02745, sequence (P02747 29-245, chain 3 of 3, further chain): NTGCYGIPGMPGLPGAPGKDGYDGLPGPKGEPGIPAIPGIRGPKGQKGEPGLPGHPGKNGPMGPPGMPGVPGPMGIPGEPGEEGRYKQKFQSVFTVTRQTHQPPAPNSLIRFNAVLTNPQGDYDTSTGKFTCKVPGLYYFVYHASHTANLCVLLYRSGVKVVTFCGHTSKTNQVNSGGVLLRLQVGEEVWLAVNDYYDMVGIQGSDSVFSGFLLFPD

Question: With HABP1/p32/gC1qR (from UniProt Q07021) as the substance, how does the Kd read?
Answer: The Kd was 75 nM.
